Measurements from US20120258099A1.

Biological target: RhoA in NIH3T3 cells (UniProt Q9QUI0)
Assay: cell-based or functional assay

Chain of RhoA in NIH3T3 cells (Q9QUI0 1-190 limits assumed): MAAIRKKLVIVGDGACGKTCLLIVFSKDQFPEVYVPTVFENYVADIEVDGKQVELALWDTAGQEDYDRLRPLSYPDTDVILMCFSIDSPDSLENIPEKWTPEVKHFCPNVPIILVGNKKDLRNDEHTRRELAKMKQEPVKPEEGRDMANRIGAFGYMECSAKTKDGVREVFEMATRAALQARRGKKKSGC

- RhoA activation in intact cells, pull-down of RhoA-GTP with GST-RBD (fold over control): 8
Substance: GFP-Tgat (from UniProt P42212 1-238; O75962 1862-2101) (enzyme)
